Measured values taken from US20150307617A1.

How the values were obtained:
[1] = molecular target: human OX40 expressed on transfected BT-474 cells (fusion with 5' HSV glycoprotein D tag) (human) (UniProt P43489); experiment: flow cytometry, ACT35-PE staining of the BT474-human OX40 low clone
[2] = molecular target: human OX40 expressed on transfected BT-474 cells (fusion with 5' HSV glycoprotein D tag) (human) (UniProt P43489); experiment: flow cytometry, ACT35-PE staining of the BT474-human OX40-high clone

Chain of human OX40 expressed on transfected BT-474 cells (fusion with 5' HSV glycoprotein D tag) (human) (P43489 29-277): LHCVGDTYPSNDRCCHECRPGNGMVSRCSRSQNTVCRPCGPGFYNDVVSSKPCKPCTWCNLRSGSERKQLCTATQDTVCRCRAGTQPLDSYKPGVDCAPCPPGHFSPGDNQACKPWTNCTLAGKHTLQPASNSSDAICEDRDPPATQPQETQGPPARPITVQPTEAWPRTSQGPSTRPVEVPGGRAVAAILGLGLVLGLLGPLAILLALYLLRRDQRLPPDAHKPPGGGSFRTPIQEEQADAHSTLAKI

Q: For “anti-human OX40 (PE) (clone ACT35) (antibody)”, which MFI [1] is on record?
A: 994 MFI

Q: What about the MFI [2] of the same substance?
A: 5240 MFI
